Paper PMC10397247
Each block holds one binder with its values, some of them ahead of it.

Experiments:
[1] = molecular target: T1, 4H_APH3; experiment: two-hybrid library CCmax;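 note: natural log of median RNA to DNA barcode read ratio; higher means stronger binding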
T1 chain: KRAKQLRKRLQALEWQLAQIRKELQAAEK

[2] = molecular target: T2, 4H_APH; experiment: two-hybrid library CCmax;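 note: natural log of median RNA to DNA barcode read ratio; higher means stronger binding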
T2 chain: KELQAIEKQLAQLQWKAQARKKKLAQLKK

[3] = molecular target: T3, 4H_BCR; experiment: two-hybrid library CCmax; conditions: mean of both orientations;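 note: natural log of median RNA to DNA barcode read ratio; higher means stronger binding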
T3 chain: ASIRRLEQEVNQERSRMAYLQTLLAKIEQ

[4] = molecular target: 4H_GCN4; experiment: two-hybrid library CCmax;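 note: natural log of median RNA to DNA barcode read ratio; higher means stronger binding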
[5] = molecular target: T4, AP1-AA; experiment: two-hybrid library CCmax;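 note: natural log of median RNA to DNA barcode read ratio; higher means stronger binding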
T4 chain: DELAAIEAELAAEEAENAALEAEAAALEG

[6] = molecular target: T5, AP2-AA; experiment: two-hybrid library CCmax;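 note: natural log of median RNA to DNA barcode read ratio; higher means stronger binding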
T5 chain: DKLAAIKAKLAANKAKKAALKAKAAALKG

[7] = molecular target: T6, AP3-AA; experiment: two-hybrid library CCmax
T6 chain: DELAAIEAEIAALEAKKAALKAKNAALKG

[8] = molecular target: T7, AP4-AA; experiment: two-hybrid library CCmax; conditions: mean of both orientations
T7 chain: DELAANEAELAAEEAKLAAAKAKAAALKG

[9] = molecular target: T8, AP5-AA; experiment: two-hybrid library CCmax; conditions: mean of both orientations
T8 chain: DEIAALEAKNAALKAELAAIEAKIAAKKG

[10] = molecular target: T9, AP6-AA; experiment: two-hybrid library CCmax; conditions: mean of both orientations
T9 chain: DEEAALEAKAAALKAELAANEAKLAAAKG

[11] = molecular target: T10, AP7-AA; experiment: two-hybrid library CCmax; conditions: mean of both orientations
T10 chain: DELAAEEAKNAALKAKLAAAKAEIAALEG

[12] = molecular target: T11, AP8-AA; experiment: two-hybrid library CCmax; conditions: mean of both orientations
T11 chain: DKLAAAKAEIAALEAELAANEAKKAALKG

[13] = molecular target: GCN2_T; experiment: two-hybrid library CCmax
[14] = molecular target: T12, O11-AA; experiment: two-hybrid library CCmax; conditions: mean of both orientations
T12 chain: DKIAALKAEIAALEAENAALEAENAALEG

[15] = molecular target: T13, O13-AA; experiment: two-hybrid library CCmax; conditions: mean of both orientations
T13 chain: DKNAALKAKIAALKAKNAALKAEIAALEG

[16] = molecular target: T14, O14-AA; experiment: two-hybrid library CCmax; conditions: mean of both orientations
T14 chain: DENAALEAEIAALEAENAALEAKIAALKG

[17] = molecular target: T15, P1-AA; experiment: two-hybrid library CCmax; conditions: mean of both orientations
T15 chain: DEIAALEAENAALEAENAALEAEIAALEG

[18] = molecular target: T16, P10-AA; experiment: two-hybrid library CCmax; conditions: mean of both orientations
T16 chain: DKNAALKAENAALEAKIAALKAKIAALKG

[19] = molecular target: T17, P11-AA; experiment: two-hybrid library CCmax; conditions: mean of both orientations
T17 chain: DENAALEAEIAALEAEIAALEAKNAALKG

[20] = molecular target: T18, P12-AA; experiment: two-hybrid library CCmax; conditions: mean of both orientations
T18 chain: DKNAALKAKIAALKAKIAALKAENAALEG

[21] = molecular target: T19, P2-AA; experiment: two-hybrid library CCmax
T19 chain: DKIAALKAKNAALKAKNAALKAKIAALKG

[22] = molecular target: T20, P3-AA; experiment: two-hybrid library CCmax
T20 chain: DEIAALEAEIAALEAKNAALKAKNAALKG

[23] = molecular target: T21, P4-AA; experiment: two-hybrid library CCmax; conditions: mean of both orientations
T21 chain: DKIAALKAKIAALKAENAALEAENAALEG

[24] = molecular target: T22, P7-AA; experiment: two-hybrid library CCmax
T22 chain: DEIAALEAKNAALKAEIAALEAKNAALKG

[25] = molecular target: T23, P8-AA; experiment: two-hybrid library CCmax; conditions: mean of both orientations
T23 chain: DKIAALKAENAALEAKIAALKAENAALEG

[26] = molecular target: T24, P9-AA; experiment: two-hybrid library CCmax
T24 chain: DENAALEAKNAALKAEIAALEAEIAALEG

[27] = molecular target: T25, zCON9_A; experiment: two-hybrid library CCmax
T25 chain: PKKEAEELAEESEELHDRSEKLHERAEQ

[28] = molecular target: T26, zCON9_B; experiment: two-hybrid library CCmax; conditions: mean of both orientations
T26 chain: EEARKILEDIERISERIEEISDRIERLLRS

[29] = molecular target: T27, zCON9_D; experiment: two-hybrid library CCmax
T27 chain: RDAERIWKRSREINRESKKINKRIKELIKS

[30] = molecular target: T28, 4H2568-bA; experiment: two-hybrid library CCNG1
T28 chain: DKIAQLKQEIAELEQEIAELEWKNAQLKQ

[31] = molecular target: T29, 4H2619-bA; experiment: two-hybrid library CCNG1
T29 chain: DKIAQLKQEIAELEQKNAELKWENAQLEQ

[32] = molecular target: T30, 4H2745-bA; experiment: two-hybrid library CCNG1
T30 chain: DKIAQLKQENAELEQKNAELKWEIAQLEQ

[33] = molecular target: T31, 4H344-bA; experiment: two-hybrid library CCNG1
T31 chain: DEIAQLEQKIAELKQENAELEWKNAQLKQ

[34] = molecular target: T32, 4H363-bA; experiment: two-hybrid library CCNG1
T32 chain: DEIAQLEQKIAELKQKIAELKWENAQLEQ

[35] = molecular target: T33, 4H3907-bA; experiment: two-hybrid library CCNG1
T33 chain: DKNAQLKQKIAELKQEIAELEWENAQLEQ

[36] = molecular target: T34, 4H3961-bA; experiment: two-hybrid library CCNG1
T34 chain: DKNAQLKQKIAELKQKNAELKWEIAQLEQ

[37] = molecular target: T35, 4H470-bA; experiment: two-hybrid library CCNG1
T35 chain: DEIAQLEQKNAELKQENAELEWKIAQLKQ

[38] = molecular target: T36, P11mS; experiment: two-hybrid library CCNG1
T36 chain: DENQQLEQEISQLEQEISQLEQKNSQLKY

[39] = molecular target: T37, P12mS; experiment: two-hybrid library CCNG1
T37 chain: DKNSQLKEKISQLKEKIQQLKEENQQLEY

[40] = molecular target: T38, P3mS; experiment: two-hybrid library CCNG1
T38 chain: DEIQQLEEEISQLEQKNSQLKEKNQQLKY

[41] = molecular target: T39, P4mS; experiment: two-hybrid library CCNG1
T39 chain: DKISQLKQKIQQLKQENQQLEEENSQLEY

[42] = molecular target: T40, P5mS; experiment: two-hybrid library CCNG1
T40 chain: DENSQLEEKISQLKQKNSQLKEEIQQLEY

[43] = molecular target: T41, P6mS; experiment: two-hybrid library CCNG1
T41 chain: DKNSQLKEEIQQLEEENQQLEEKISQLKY

[44] = molecular target: T42, P7mS; experiment: two-hybrid library CCNG1
T42 chain: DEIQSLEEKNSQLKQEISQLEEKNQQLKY

[45] = molecular target: T43, P8mS; experiment: two-hybrid library CCNG1
T43 chain: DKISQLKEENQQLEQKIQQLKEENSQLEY

[46] = molecular target: T44, P9mS; experiment: two-hybrid library CCNG1
T44 chain: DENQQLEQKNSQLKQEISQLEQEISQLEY

[47] = molecular target: T45, P12; experiment: two-hybrid library CC1
T45 chain: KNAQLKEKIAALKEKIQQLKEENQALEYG

[48] = molecular target: T46, P3; experiment: two-hybrid library CC1; conditions: mean of both orientations
T46 chain: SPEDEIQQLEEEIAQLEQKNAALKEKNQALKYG

[49] = molecular target: T47, P3mS; experiment: two-hybrid library CC1; conditions: mean of both orientations
T47 chain: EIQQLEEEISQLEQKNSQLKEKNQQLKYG

[50] = molecular target: T48, P4; experiment: two-hybrid library CC1; conditions: mean of both orientations
T48 chain: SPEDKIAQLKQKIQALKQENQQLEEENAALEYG

[51] = molecular target: T49, P4mS; experiment: two-hybrid library CC1; conditions: mean of both orientations
T49 chain: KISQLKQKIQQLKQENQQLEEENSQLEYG

[52] = molecular target: T50, P5SC1; experiment: two-hybrid library CC1; conditions: mean of both orientations
T50 chain: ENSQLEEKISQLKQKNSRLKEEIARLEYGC

[53] = molecular target: T51, P5SC2; experiment: two-hybrid library CC1; conditions: mean of both orientations
T51 chain: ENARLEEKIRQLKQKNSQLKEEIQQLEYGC

[54] = molecular target: T52, P5; experiment: two-hybrid library CC1; conditions: mean of both orientations
T52 chain: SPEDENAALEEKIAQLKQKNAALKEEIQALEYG

[55] = molecular target: T53, P5mS; experiment: two-hybrid library CC1; conditions: mean of both orientations
T53 chain: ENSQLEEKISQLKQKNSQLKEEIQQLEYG

[56] = molecular target: T54, P6SC1; experiment: two-hybrid library CC1; conditions: mean of both orientations
T54 chain: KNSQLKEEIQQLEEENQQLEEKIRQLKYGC

[57] = molecular target: T55, P6SC2; experiment: two-hybrid library CC1; conditions: mean of both orientations
T55 chain: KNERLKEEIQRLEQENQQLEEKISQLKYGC

[58] = molecular target: T56, P6; experiment: two-hybrid library CC1; conditions: mean of both orientations
T56 chain: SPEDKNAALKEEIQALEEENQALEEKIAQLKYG

[59] = molecular target: T57, P6mS; experiment: two-hybrid library CC1; conditions: mean of both orientations
T57 chain: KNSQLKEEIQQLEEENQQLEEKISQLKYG

[60] = molecular target: T58, P7; experiment: two-hybrid library CC1; conditions: mean of both orientations
T58 chain: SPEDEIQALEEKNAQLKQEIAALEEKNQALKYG

[61] = molecular target: T59, P7mS; experiment: two-hybrid library CC1; conditions: mean of both orientations
T59 chain: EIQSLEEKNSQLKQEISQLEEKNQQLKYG

[62] = molecular target: T60, P8; experiment: two-hybrid library CC1; conditions: mean of both orientations
T60 chain: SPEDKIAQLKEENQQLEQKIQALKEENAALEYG

[63] = molecular target: T61, P8mS; experiment: two-hybrid library CC1; conditions: mean of both orientations
T61 chain: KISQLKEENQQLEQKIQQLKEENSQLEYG

[64] = molecular target: T62, P9; experiment: two-hybrid library CC1; conditions: mean of both orientations
T62 chain: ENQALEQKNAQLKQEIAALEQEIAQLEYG

Chain of 4H_GCN4 (chain, as listed by the source): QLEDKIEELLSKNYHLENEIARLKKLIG

B3: P11mS (peptide)
chain: DENQQLEQEISQLEQEISQLEQKNSQLKY
interaction score [38]: -0.707
interaction score [39]: 1.52
interaction score [40]: -0.646
interaction score [41]: 0.774
interaction score [42]: 0.261
interaction score [43]: -0.739
interaction score [44]: -0.84
interaction score [45]: -0.0076
interaction score [46]: -0.542

B4: P12 (peptide)
chain: KNAQLKEKIAALKEKIQQLKEENQALEYG
interaction score [47]: -2.73
interaction score [48]: 0.183
interaction score [49]: -0.884
interaction score [50]: -2.97
interaction score [51]: -2.91
interaction score [52]: -2.96
interaction score [53]: -2.9
interaction score [54]: -2.87
interaction score [55]: -2.78
interaction score [56]: -2.44
interaction score [57]: -2.47
interaction score [58]: -2.42
interaction score [59]: -2.73
interaction score [60]: -2.41
interaction score [61]: -2.85
interaction score [62]: -2.9
interaction score [63]: -2.85
interaction score [64]: -1.37

B5: P12mS (peptide)
chain: DKNSQLKEKISQLKEKIQQLKEENQQLEY
interaction score [39]: -1.27
interaction score [40]: 0.362
interaction score [41]: -0.954
interaction score [42]: -1.57
interaction score [43]: -0.944
interaction score [44]: -0.947
interaction score [45]: -0.844
interaction score [46]: -0.472

Now from value to binder:

interaction score [1]: -1.54
interaction score [2]: -2.1
interaction score [3]: -1.64
interaction score [4]: -2.22
interaction score [5]: -1.47
interaction score [6]: -1.63
interaction score [7]: -1.35
interaction score [8]: -1.31
interaction score [9]: -2.21
interaction score [10]: -2.09
interaction score [11]: -2.03
interaction score [12]: -1.48
interaction score [13]: -2.07
interaction score [14]: -1.39
interaction score [15]: -1.81
interaction score [16]: -1.65
interaction score [17]: -2.11
interaction score [18]: -1.47
interaction score [19]: -1.03
interaction score [20]: -1.3
interaction score [21]: -1.82
interaction score [22]: -0.728
interaction score [23]: -1.9
interaction score [24]: -1.87
interaction score [25]: -1.89
interaction score [26]: -1.86
interaction score [27]: -1.26
interaction score [28]: -2.09
interaction score [29]: -1.96
B1: 4H_APH (peptide)
chain: KELQAIEKQLAQLQWKAQARKKKLAQLKK

interaction score [30]: 1.94
interaction score [31]: 0.254
interaction score [32]: -0.347
interaction score [33]: 0.491
interaction score [34]: 0.53
interaction score [35]: 1.89
interaction score [36]: 2.32
interaction score [37]: -0.973
B2: 4H2568-bA (peptide)
chain: DKIAQLKQEIAELEQEIAELEWKNAQLKQ
